± gives the standard deviation of the averaged measurements.
B1: library; a variant is named by its letters at N, in order (parent)
chain: ACATTTGTTGATACAACCATAAAATGATAATTACACCCATAAATTGATAATTATCACACCCANNNNNNNNNNNNNNCTCTGATCATAGTCAGACCAACATTGCTACGACCCGTATTCGCACCGACAC

Assays:
[1] = variants of: B1; experiment: relative integration efficiency (T-RL orientation) vs wild-type transposon end (log2 (normalized fold change)); transposon end mutated: right end (5 bp flank + 75 bp right end); higher = more efficient transposition; conditions: with VchCAST RNA-guided transposition machinery (E. coli BL21(DE3) host, lacZ target)
Description: (§1)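 Pooled, barcoded VchCAST (Tn6677) mini-transposon donor libraries; each variable transposon-end sequence sits in a fixed pDonor mini-transposon context (10-bp barcode and cargo not included). Left- or right-end libraries were co-transformed with pEffector (TniQ-Cascade, TnsABC, lacZ crRNA, T7, 0.1 mM IPTG) into E. coli BL21(DE3) and grown 18 h at 37 C. T-LR and T-RL junction amplicons were sequenced; output/input barcode fold change was normalised to the mean of four wild-type barcodes and log2-transformed. Two biological replicates; zero-count/undetected variants carry floor values (-10 / -15), censored here. Barcode uncoupling by PCR recombination adds noise.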

[2] = variants of: B1; experiment: relative integration efficiency (T-LR orientation) vs wild-type transposon end (log2 (normalized fold change)); transposon end mutated: right end (5 bp flank + 75 bp right end); higher = more efficient transposition; conditions: with VchCAST RNA-guided transposition machinery (E. coli BL21(DE3) host, lacZ target)
Description: as §1

Variant | relative integration efficiency (log2) [1] | relative integration efficiency (log2) [2]
TAAATTGATATTGC A56G | -0.248 ± 0.083 | 0.362 ± 0.33
TAAATTGATATTGC A56T | -0.4 ± 0.052 | 0.0769 ± 0.005
TAAATTGATATTGC A56C | -0.0165 ± 0.22 | 0.317 ± 0.21
TAAATTGATATTGC C60T | -0.182 ± 0.028 | 0.2 ± 0.2
TAAATTGATATTGC C60G | 0.0119 ± 0.012 | 0.315 ± 0.03
TAAATTGATATTGC C60A | -0.462 ± 0.027 | 1.55 ± 0.14
TAAATTGATATTGC C18T | 0.131 ± 0.1 | -0.605 ± 0.2
TAAATTGATATTGC C18G | -0.199 ± 0.036 | -0.152 ± 0.14
TAAATTGATATTGC C18A | -0.147 ± 0.1 | -0.272 ± 0.024
TAAATTGATATTGC A22C | -0.874 ± 0.074 | -1.72 ± 0.82
TAAATTGATATTGC A22G | -0.771 ± 0.018 | -1.09 ± 0.47
TAAATTGATATTGC A22T | -0.215 ± 0.042 | -0.148 ± 0.0031
TAAATTGATATTGC A41T | -0.0667 ± 0.018 | -0.148 ± 0.022
TAAATTGATATTGC A41C | -0.815 ± 0.047 | -0.78 ± 0.23
TAAATTGATATTGC A41G | -0.104 ± 0.45 | -0.399 ± 1.1
TAAATTGATAAACG | -0.208 ± 0.021 | 0.342 ± 0.21
TAAATTGATATCGC | 0.0222 ± 0.012 | -0.0692 ± 0.048
TAAATTGATAGGTA | -0.219 ± 0.01 | 1.09 ± 0.099
GAAATTGATATTGC | -0.446 ± 0.11 | 2.2 ± 0.046

Variant | relative integration efficiency (log2) [1] | relative integration efficiency (log2) [2]
AAAATTGATATTGC A62T | -0.47 ± 0.19 | 1.67 ± 0.025
TAAATTGATATTGC A3G | 0.00116 ± 0.033 | 0.0517 ± 0.23
TAAATTGATATTGC A3C | -0.109 ± 0.047 | -0.337 ± 0.37
TAAATTGATATTGC A3T | -0.114 ± 0.0076 | -0.195 ± 0.15
TAAATTGATATTGC A13C | -0.236 ± 0.083 | -0.613 ± 0.75
TAAATTGATATTGC A13T | 0.116 ± 0.008 | 0.0619 ± 0.48
TAAATTGATATTGC A13G | 0.209 ± 0.06 | 0.173 ± 0.33
TAAATTGATATTGC C77A | -0.111 ± 0.093 | -0.0608 ± 0.27
TAAATTGATATTGC C77T | -0.00923 ± 0.0046 | -0.351 ± 0.044
TAAATTGATATTGC C77G | 0.0121 ± 0.017 | -0.217 ± 0.018
TAAATTGAAATTGC | -0.187 ± 0.13 | 1.06 ± 0.27
TAAATTGATATTGC A16G | -0.119 ± 0.073 | -0.0536 ± 0.39
TAAATTGATATTGC A16T | -0.582 ± 0.072 | -0.311 ± 0.2
TAAATTGATATTGC A16C | -0.0617 ± 0.0049 | 0.0173 ± 0.062
TAAATTCTTATTGC | -0.485 ± 0.094 | 2.36 ± 0.24
TAAATTGATATTGC A11C | 0.342 ± 0.021 | -0.681 ± 0.56
TAAATTGATATTGC A11T | 0.176 ± 0.055 | -0.678 ± 0.051
TAAATTGATATTGC A11G | -0.0551 ± 0.029 | -0.5 ± 0.17
TAAATTGATATTGC C55A | -0.759 ± 0.066 | 0.402 ± 0.41

Variant | relative integration efficiency (log2) [1] | relative integration efficiency (log2) [2]
TAAATTGATATTGC C55G | -0.145 ± 0.21 | 0.0542 ± 0.17
TAAATTGATATTGC C55T | -0.293 ± 0.17 | 0.175 ± 0.29
TAAATTGAGCGGGC | -0.15 ± 0.012 | 2.13 ± 0.086
TAAATTGATATTGC A30T | -0.464 ± 0.16 | -0.0553 ± 0.55
TAAATTGATATTGC A30G | -0.795 ± 0.13 | -0.2 ± 0.08
TAAATTGATATTGC A30C | -0.623 ± 0.12 | -0.195 ± 0.17
TAAATTGATATTGC C79G | -0.0645 ± 0.0099 | -0.196 ± 0.19
TAAATTGATATTGC C79A | -0.158 ± 0.087 | -0.334 ± 0.18
TAAATTGATATTGC C79T | 0.00455 ± 0.031 | -0.191 ± 0.27
TAAATTGATAATTA | 0.000518 ± 0.059 | 0.0298 ± 0.42
TAAATTCATATTGC | -0.149 ± 0.23 | 2.62 ± 0.096
TAAATTGATATGGC | 0.087 ± 0.065 | 0.317 ± 0.14
TAAATTGAATTTGC | -0.179 ± 0.17 | 1.16 ± 0.42
TAAATGTATATTGC | -0.000422 ± 0.028 | 2.416 ± 0.0088
TAAATTGAGATTGC | -0.3392 ± 0.00035 | 0.765 ± 0.23
TAAATTGATATTGA | 0.138 ± 0.028 | 0.0994 ± 0.1
TAAATTGATATTGC | -0.0034 ± 0.1 | -0.0165 ± 0.24
TAAATTGATATTGC A27T | -0.915 ± 0.17 | -0.49 ± 0.05
